Data as given in IntAct's records for PubMed 22615398.

B1: Geminin (Homo sapiens), O75496 (parent)
chain: MNPSMKQKQEEIKENIKNSSVPRRTLKMIQPSASGSLVGRENELSAGLSKRKHRNDHLTSTTSSPGVIVPESSENKNLGGVTQESFDLMIKENPSSQYWKEVAEKRRKALYEALKENEKLHKEIEQKDNEIARLKKENKELAEVAEHVQYMAELIERLNGEPLDNFESLDNQEFDSEEETVEDSLVEDSEIGTCAEGTVSSSTDAKPCI

Variants of: B1
Conditions: with hxc9_human HOXC9, P31274
Chain of hxc9_human HOXC9, P31274 (P31274 whole entry): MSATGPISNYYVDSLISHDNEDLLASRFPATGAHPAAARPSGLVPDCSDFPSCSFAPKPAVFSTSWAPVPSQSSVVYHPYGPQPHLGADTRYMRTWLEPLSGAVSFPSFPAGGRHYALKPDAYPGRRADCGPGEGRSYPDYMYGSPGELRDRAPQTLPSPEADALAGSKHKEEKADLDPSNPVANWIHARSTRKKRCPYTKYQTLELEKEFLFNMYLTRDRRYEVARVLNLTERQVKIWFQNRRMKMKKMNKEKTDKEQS
With MNPSMKQKQEEIKENIKNSSVPRRTLKMIQPSASGSLVGRENELSAGLSKRKHRNDHLTSTTSSPGVIVPESSENKNLGGVTQESFDLMIKENPSSQYWKEVAEKRRKALYEALKENEKLHKEIEQKDNEIARLKKENKELAEVAEHVQYMAELIERLNGEPLDNFESLDNQEFDSEEETVEDSLAQNSEIGTCAEGTVSSSTDAKPCI [V186A;E187Q;D188N] the “effect of a mutation on the interaction” value was “decreasing interaction strength”.
In the case of MNPSMKQKQEEIKENIKNSSVPRRTLKMIQPSASGSLVGRENELSAGLSKRKHRNDHLTSTTSSPGVIVPESSENKNLGGVTQESFDLMIKENPSSQYWKEVAEKRRKALYEALKENEKLHKEIEQKDNEIARLKKENKELAEVAEHVQYMAELIERLNGEPLDNFESLDNQEFDSQQQTVQDSLVQNSEIGTCAEGTVSSSTDAKPCI [E177Q;E178Q;E179Q;E182Q;E187Q;D188N], the “effect of a mutation on the interaction” value is reported as “decreasing interaction strength”.
With MNPSMKQKQEEIKENIKNSSVPRRTLKMIQPSASGSLVGRENELSAGLSKRKHRNDHLTSTTSSPGVIVPESSENKNLGGVTQESFDLMIKENPSSQYWKEVAEKRRKALYEALKENEKLHKEIEQKDNEIARLKKENKELAEVAEHVQYMAELIERLNGEPLDNFESLDNQEFDSEEETAQNSLVEDSEIGTCAEGTVSSSTDAKPCI [V181A;E182Q;D183N] the “effect of a mutation on the interaction” value was “decreasing interaction strength”.
For MNPSMKQKQEEIKENIKNSSVPRRTLKMIQPSASGSLVGRENELSAGLSKRKHRNDHLTSTTSSPGVIVPESSENKNLGGVTQESFDLMIKENPSSQYWKEVAEKRRKALYEALKENEKLHKEIEQKDNEIARLKKENKELAEVAEHVQYMAELIERLNGEPLDNFESLDNQEFDSEEETVEDELVEDSEIGTCAEGTVSSSTDAKPCI [S184E], the “effect of a mutation on the interaction” value was “increasing interaction strength”.
With MNPSMKQKQEEIKENIKNSSVPRRTLKMIQPSASGSLVGRENELSAGLSKRKHRNDHLTSTTSSPGVIVPESSENKNLGGVTQESFDLMIKENPSSQYWKEVAEKRRKALYEALKENEKLHKEIEQKDNEIARLKKENKELAEVAEHVQYMAELIERLNGEPLDNFESLDNQEFDSQQQTVEDSLVEDSEIGTCAEGTVSSSTDAKPCI [E177Q;E178Q;E179Q] the “effect of a mutation on the interaction” value was “decreasing interaction strength”.
